B1: CPEB3 Ribozyme (parent)
chain: GGGGGCCACAGCAGAAGCGUUCACGUCGCGGCCCCUGUCAGAUUCUGGUGAAUCUGCGAAUUCUGCUGU

Variants of: B1
Experiment: self-cleavage, relative activity (ratio to wild type); higher = more cleavage; co-transcriptional

Point of comparison: C27A C33G, self-cleavage 0.224. Against it:
- G28A C29G — lower, 0.117
- G28A C29A — lower, 0.143
- U26G U55G — higher, 0.404
- G28A A60C — lower, 0.197
- G28A A60G — lower, 0.168
- G28A A60U — lower, 0.199
- G28A C45A — lower, 0.184
- G28A C45G — lower, 0.196
- C27U U46A — higher, 0.567
- C27U U46G — higher, 0.372
- C27U U46C — higher, 0.301
- C27U U44A — higher, 0.292
- C27U U44G — lower, 0.198
- C27U U44C — lower, 0.15
- C27A C39U — higher, 0.339
- C27A C39G — higher, 0.346
- C27A C39A — lower, 0.205
- C27A U46A — higher, 0.736
- C27A U46G — higher, 0.725
- C27G G31A — lower, 0.174
- C27G G31C — lower, 0.174
- C27A A40U — higher, 0.304
- C27A A40G — higher, 0.452
- C27A A40C — higher, 0.256
- C27U C35U — higher, 0.318
- C27U C35A — lower, 0.158
- C27A U64G — higher, 0.319
- C27A U64A — higher, 0.286
- C27A G65C — higher, 0.288
- C27A G65A — higher, 0.255
- C27A G65U — lower, 0.202
- U26G U53A — higher, 0.782
- U26G U53G — higher, 0.778
- U26G U53C — higher, 0.768
- C27U U53C — lower, 0.169
- C27G C34G — lower, 0.142
- C27G C34U — lower, 0.223
- C27A G68A — higher, 0.853
- G28A C34A — lower, 0.218
- C27G G28U — lower, 0.154
- C27G G28C — lower, 0.13
- G28A G41C — lower, 0.177
- C27U C54G — lower, 0.195
- C27U C54A — lower, 0.18
- C27U C54U — higher, 0.328
- C27A C63A — higher, 0.227
- C27G G41U — lower, 0.151
- C27G G41A — lower, 0.154
- C27G C66U — lower, 0.156
- C27G C66A — lower, 0.174
- C27U C63U — lower, 0.17
- C27A C35U — higher, 0.441
- C27A C35A — lower, 0.209
- G28A C54G — lower, 0.177
- G28A C54U — lower, 0.194
- C27U A40G — lower, 0.192
- C27U A40U — lower, 0.207
- C27G U61A — lower, 0.19
- G28A G30C — lower, 0.167
- U26G U49C — higher, 0.924
- U26G U49G — higher, 0.907
- G28A U36C — lower, 0.128
- C27G U55G — lower, 0.159
- C27G U55A — lower, 0.142
- C27U U43G — lower, 0.14
- C27U U43A — lower, 0.188
- C27G G37C — lower, 0.162
- C27A C33U — higher, 0.539
- C27A C33A — higher, 0.288
- C27U U69G — higher, 0.457
- C27U U69C — higher, 0.769
- C27G A60U — lower, 0.181
- C27G A60G — lower, 0.204
- G28A A59U — lower, 0.198
- C27G C54U — lower, 0.151
- C27G C54G — lower, 0.169
- C27A G28C — lower, 0.158
- C27A G28A — lower, 0.18
- C27A G28U — lower, 0.187
- G28A A51U — lower, 0.183
- G28A A51C — higher, 0.234
- G28A G50U — lower, 0.159
- G28A G50A — lower, 0.195
- C27A A60G — higher, 0.253
- C27A A60U — higher, 0.249
- C27A G50C — higher, 0.493
- C27A G50U — higher, 0.647
- C27A G50A — higher, 0.587
- C27U G65U — lower, 0.148
- C27U G65C — lower, 0.196
- C27U G65A — lower, 0.172
- C27U G58A — higher, 0.237
- C27U G58C — higher, 0.351
- C27U G58U — higher, 0.526
- C27A C54A — higher, 0.25
- C27G U46G — lower, 0.188
- C27G U46A — lower, 0.162
- C27G U46C — lower, 0.181
- C27G C45G — lower, 0.144
- C27U C32A — higher, 0.227
- C27U C32U — higher, 0.403
- C27U C32G — lower, 0.186
- U26G U69C — higher, 1.04
- U26G U69G — higher, 1
- U26G U69A — higher, 1
- C27U C33A — higher, 0.271
- C27U C33G — lower, 0.206
- C27U C33U — higher, 0.345
- C27G G30U — lower, 0.149
- C27G G30C — higher, 0.279
- C27G G30A — higher, 0.228
- C27U A51U — higher, 0.303
- C27U A51C — higher, 0.259
- C27U A51G — higher, 0.376
- C27U A60G — higher, 0.254
- C27U A60C — lower, 0.192
- C27A C57U — lower, 0.173
- C27A C57A — lower, 0.189
- U26G U62C — higher, 0.674
- C27G G56C — lower, 0.135
- C27A U43A — lower, 0.18
- C27A U43G — higher, 0.226
- C27U U61C — lower, 0.14
- U26G U44G — higher, 0.811
- U26G U44C — higher, 0.866
- U26G U44A — higher, 0.925
- C27A G58A — higher, 0.377
- C27A G58U — higher, 0.727
- G28A A42U — lower, 0.137
- G28A A42G — lower, 0.131
- G28A A42C — lower, 0.177
- C27U C45G — higher, 0.243
- C27G — lower, 0.197
- C27U — higher, 0.417
- C27A — higher, 0.711
- G28A G65C — lower, 0.172
- U26G U64A — higher, 0.692
- U26G U64C — higher, 0.756
- C27U G31U — lower, 0.192
- C27U G31A — higher, 0.266
- C27A A42G — higher, 0.419
- C27A A42U — higher, 0.379
- C27A A42C — higher, 0.286
- G28A C32U — lower, 0.184
- G28A C32G — lower, 0.139
- G28A C32A — lower, 0.19
- C27A U61C — lower, 0.191
- C27A U61G — higher, 0.367
- C27G C57G — lower, 0.175
- C27G C57A — lower, 0.131
- C27G U36A — lower, 0.18
- C27G C32A — lower, 0.201
- C27G C32G — lower, 0.134
- C27G C32U — lower, 0.207
- C27A U55G — higher, 0.226
- C27A U55C — higher, 0.272
- C27A U55A — higher, 0.237
- C27A G56U — higher, 0.371
- C27A G56C — lower, 0.187
- C27U C39G — lower, 0.164
- C27U C39A — lower, 0.186
- C27G C63U — lower, 0.209
- C27G C63G — higher, 0.225
- G28A G56C — higher, 0.235
- G28A G56A — lower, 0.164
- G28A G56U — lower, 0.167
